{"source": "patent US20080227700A1", "about": "“Compositions and Methods for Treatment of Protein Misfolding and Protein Aggregation Diseases” (priority 2004, published 2008)", "key": {"γD crystallin [1]": {"biological_target": "T1, γD crystallin (Homo sapiens, UniProt P07320)", "T1 sequence (P07320 1-174)": "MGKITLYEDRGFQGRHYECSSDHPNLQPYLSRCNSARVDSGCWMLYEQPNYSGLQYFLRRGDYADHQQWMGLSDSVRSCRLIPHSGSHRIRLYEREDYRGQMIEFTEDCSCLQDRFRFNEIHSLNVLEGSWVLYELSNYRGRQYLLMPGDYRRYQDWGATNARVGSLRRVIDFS", "assay": "γD crystallin ThioflavinT fluorescence (fibrillization of γD crystallin)", "type": "biochemical", "conditions": "1:1 γD crystallin:peptide; for effect on the fibrillization of γD crystallin: ThioflavinT fluorescence after 72 hrs, comparison among αB crystallin and five peptides", "description": "γD crystallin Thioflaviin T fluorescence. γD crystallin fibrils were formed in a similar way to that of γ crystalline. Meehan et al., J Biol Chem 279: 3413-3419, 2004. Peptides were dissolved to […] IN tfe AND DILUTED to 0.91 mM stock solutions in 10% TFE, pH 2.0.\n3.5 mg of ThioflavinT was dissolved in 100 μL of 50 mM Glycine pH 8.5. A stock solution of 1 mg/ml (0.22 mM) Aβ was prepared. 20 μl Aβ, 5 μl chaperone, 2 μl ThioflavinT was mixed with 73 μL 10% TFE, pH 2.0. Fluorescence was read using a Beckman Coultier DTX 880 multimode detector. Samples were heated at 50° C. for 72 hours and fluorescence was read again.\nThe fibrillization of γD crystallin was measured as fluorescence of the fluorescent dye ThioflavinT from solutions containing 1:1 monomeric molar ratio of γD crystallin:peptide. In the absence of fibrils ThioflavinT had little or no fluorescence. The fluorescence of the ThioflavinT bound to γD crystallin fibrils in the absence of any other molecule after 72 hrs was set to 100%. […] Fibril formation=ΔfluorescenceγD crystallin (with chaperone)*100/ΔfluorescenceγD crystallin (without chaperone)."}, "βL crystallin": {"tested_on": "βL crystallin", "assay": "Chaperone assay, thermal aggregation of βL crystallin", "type": "biochemical", "conditions": "light scattering at λ=340 nm; 1:10 target protein:peptide; comparison among five peptides", "description": "Chaperone Assays. Chaperone assays of the five peptides were performed using previously established methods with minor modifications. Muchowski et al., J Mol Biol 289: 397-411, 1999. A 1:1 monomeric molar ratio of chaperone: target protein was determined to be the optimum ratio and all subsequent chaperone assays of the β3 mutants were performed in triplicate and at a 1:1 monomeric molar ratio of chaperone: target protein in a 96-well ELISA micro-titer plate. […] of the chaperone and βL crystallin were mixed in a total volume of 200 μL buffer (5 mM PBS, pH 7.0). Light scattering at λ=340 nm was measured using a Multiskan MCC/340 plate reader before heating (time=0). After the first reading, the plate was heated at 50° C. and readings were taken at fifteen minute intervals for one hour.\nThe ability of the peptides to suppress the thermal aggregation of βL crystallin was measured spectrophotometrically as light scattering at λ=340 nm from solutions containing 1:10 monomeric molar ratio of target protein: peptide."}, "Aβ": {"biological_target": "Aβ (Homo sapiens, UniProt P05067)", "assay": "Aβ ThioflavinT fluorescence (fibrillization of Aβ)", "type": "biochemical", "conditions": "ThioflavinT; 50° C. for 72 hours; 1:10 Aβ:peptide; no chaperone 1,324,974,048", "description": "Aβ Thioflaviin T fluorescence. Aβ fibrils were grown in the presence and absence of αB crystallin and peptides in conditions similar to that previously described for the presence of αB crystallin. Bakthisaran et al., Biochem J, 2005. Peptides were dissolved to 9.1 mM in trifluorethanol (TFE) and diluted to 0.91 mM stock solutions in 50 mM PBS, 100 mM NaCl, pH 7.4. 3.5 mg of ThioflavinT was dissolved in 100 μl of 50 mM Glycine pH 8.5. A stock solution of 1 mg/ml (0.22 mM) Aβ was prepared. 20 μl Aβ, 50 μl chaperone, 2 μl ThioflavinT was mixed with 28 μl 50 mM PBS, 100 mM NaCl, pH 7.4. Fluorescence was read using a Beckman Coultier DTX 880 multimode detector. Samples were heated at 50° C. for 72 hours and fluorescence was read again.\nThe fibrillization of Aβ was measured as fluorescence of the fluorescent dye ThioflavinT from solutions containing 1:10 monomeric molar ratio of Aβ:peptide. In the absence of Aβfibrils, ThioflavinT had little or no fluorescence. The fluorescence of the ThioflavinT bound to Aβ fibrils in the absence of any other molecule after 72 hrs was set to 100%. […] Fibril formation=ΔfluorescenceAβ (with chaperone)*100/ΔfluorescenceAβ (without chaperone)."}, "beta amyloid": {"biological_target": "beta amyloid (Homo sapiens, UniProt P05067)", "assay": "αB crystallin protein pin array screened for binding to beta amyloid", "conditions": "immobilized 8-mer peptide; absorption at 450 nm; assayed 2-5 times", "source_text": "αB Crystallin peptides that bind the target protein beta-amyloid were identified by screening an αB crystallin protein pin array, which provides a systematic method for evaluating interactions between peptides corresponding to residues 1-175 of human αB crystallin and selected target proteins in a parallel and simultaneous manner.\nPeptides were synthesized on derivatized polyethylene pins arranged in a microtiter plate format. Each peptide was 8 amino acids in length and consecutive peptides were offset by 2 amino acids. All peptides were covalently bonded to the surface plastic pins. The first immobilized peptide was 1MDIAIHHP8 and the last peptide was 168PAVTAAPK175 for the human αB crystallin.\nAfter synthesis, the pins were pre-coated at room temperature with 2% Bovine Serum Albumin (BSA), 0.1% Tween-20 and 0.1% Sodium azide in 10 mM phosphate buffered saline pH 7.2 (PBS) for 1 hr, and washed three times for 10 mins each with 10 mM PBS. To screen for binding to the peptides, fixed concentrations of the target protein beta amyloid was dissolved in 10 mM PBS, containing 0.05% Tween-20, added to each well and incubated for 1 hr at room temperature. The pin array was washed three times for 10 mins each with 10 mM PBS, containing 0.05% Tween-20. Monoclonal or polyclonal primary antibodies for the target protein beta amyloid was diluted into PBS buffer, added to each well and incubated for 1 hr at room temperature. Subsequently, the pin array was washed three times for 10 mins each with 10 mM PBS containing 0.05% Tween-20. Anti-rabbit horse-radish peroxidase conjugate secondary antibodies was diluted into PBS buffer, added to each well and incubated for 1 hr at room temperature. The pin array was washed three times for 10 mins each with 10 mM PBS containing 0.05% Tween-20. A chromogenic substrate of horse-radish peroxidase 3,3′,5,5′-Tetramethylbenzidine (TMB) (Pharmingen, San Diego, Calif.) which is colorless was added, and the reaction was carried out for 45 min.\nThe reaction was stopped by adding 6N sulfuric acid, which changes the color from blue to yellow. The absorption at 450 nm was measured by an ELISA reader (BioTek, Winooski, Vt.).\nThe pin array was regenerated by sonication in a water bath (VWR Aquasonic, West Chester, Pa.) with 100 mM PBS, containing 1% Sodium dodecyl sulfate (SDS) and 0.1% 2-Mercaptoethanol @ 60° C. for 10 mins. Next, the pin array was rinsed three times in deionized water, preheated to 60° C. for 30 secs each time, and shaken in water preheated at 60° C. for 30 min. The pin array was then washed with methanol at 60° C. for 15 secs and air-dried and stored @−20° C. for future use. Each target protein was assayed 2-5 times against the human αB crystallin protein pin array peptides to verify the reproducibility of the results. Peptides numbered 5, 7, 8, 9, 13, 19, 22, 23, 24, 27, 35, 38, 45, 51, 52, 56, 57, 61, 66, 71, 72, and 79 in Table 2 reproducibly tested positive in the protein pin assay."}, "bovine βH crystallin": {"tested_on": "bovine βH crystallin", "assay": "Protein pin array interaction with βH crystallin", "type": "binding", "conditions": "unheated βH crystallin; similar maxima with βH crystallin pre-heated at 45° C. for fifteen minutes", "source_text": "(§1) Synthesis of Pins, binding and detection of peptides binding to ligand proteins. The αB crystallin protein pin array was used to measure the interaction between peptides and chaperone target proteins including bovine βH crystallin, human γD crystallin, equine alcohol dehydrogenase (ADH) and porcine citrate synthase (CS) as described (FIG. 12). Ghosh and Clark, Protein Sci 14: 684-95, 2005.\n(§2) Refer to the methods section for detailed protocols. The absorbance corresponding to the blue coloration in each well was measured at λ=450 nm and plotted against the amino acid sequence of the corresponding peptide in that well (FIGS. 13 and 14). Wells containing peptides that have strong interactions with target proteins are dark blue and wells containing peptides that have weak or no interaction with target proteins are light blue or clear.\n(§3) The purity of the target proteins used in the pin array assays, bovine βH crystallin, human γD crystallin, equine alcohol dehydrogenase (ADH) and porcine citrate synthase (CS) were determined to be >90% by SDS-PAGE. In addition, primary antibodies for each target protein were specific to that target protein and consequently contaminating proteins that may bind to the peptides will not be detected. Eighty-four sequential and overlapping peptide fragments corresponding to residues 1-175 of human αB crystallin were synthesized employing a simultaneous peptide synthesis strategy developed by Geysen, called Multipin Peptide Synthesis (Mimotopes, San Diego, Calif.). Geysen, Southeast Asian J Trop Med Public Health 21: 523-33, 1990; Chin et al., J Org Chem 62: 538-539, 1997. Peptides were immobilized on derivatized polyethylene pins arranged in a microtiter ELISA plate format. Each peptide was eight amino acids in length and consecutive peptides were offset by two amino acids. All peptides were bound covalently to the surface of the plastic pins. The first peptide was […] for human αB crystallin.\n(§4) Ghosh and Clark, Protein Sci 14: 684-95, 2005. […] The intensity of the blue color in the wells was measured at 450 nm using an ELISA plate-reader (BioTek, Winooski, Vt.). The intensity of the blue color (plotted on the X-axis) was a measure of the interaction between αB crystallin peptides (plotted on the Y-axis) and target proteins. To measure the effect of temperature on the interactions between interactive peptides and the target proteins, the target proteins were heated in a water-bath at 45° C. for fifteen minutes prior to use. Pin arrays are unable to differentiate between monomers, dimers or oligomers of target proteins that exist in solution. Instead, pin arrays are very sensitive detectors of interactions between individual peptides and the entire population (monomers, dimers or oligomers) of specific target proteins that may exist in solution under specific conditions. Each target protein was assayed two to five times. A single pin array was used for all experiments and no change in interactions was observed after more than thirty repetitions. The last three peptides of the protein pin array, 163REEKPAVT170, 165EKPAVTAA172, 167PAVTAAPK174, correspond to the epitope (163REEKPAVTAAPKK175) recognized by the primary antibody for human αB crystallin. A positive reaction is observed for these three peptides in the absence of human αB crystallin as the ligand due to direct binding of the anti-human αB crystallin antibody to these three peptides. The loss of efficiency for the pin array was measured using this assay. The loss of efficiency for the pin array was determined to be <5% by after more than 30 assays.\n(§5) The amino acid sequences of each 8-mer human αB crystallin peptide immobilized sequentially on 84 pins in a 96-well ELISA plate format are listed on the Y-axis. […]"}, "[2]": {"biological_target": "T2, equine alcohol dehydrogenase (ADH) (Equus caballus, UniProt P00327)", "T2 construct": "purchased", "T2 sequence (P00327 whole entry)": "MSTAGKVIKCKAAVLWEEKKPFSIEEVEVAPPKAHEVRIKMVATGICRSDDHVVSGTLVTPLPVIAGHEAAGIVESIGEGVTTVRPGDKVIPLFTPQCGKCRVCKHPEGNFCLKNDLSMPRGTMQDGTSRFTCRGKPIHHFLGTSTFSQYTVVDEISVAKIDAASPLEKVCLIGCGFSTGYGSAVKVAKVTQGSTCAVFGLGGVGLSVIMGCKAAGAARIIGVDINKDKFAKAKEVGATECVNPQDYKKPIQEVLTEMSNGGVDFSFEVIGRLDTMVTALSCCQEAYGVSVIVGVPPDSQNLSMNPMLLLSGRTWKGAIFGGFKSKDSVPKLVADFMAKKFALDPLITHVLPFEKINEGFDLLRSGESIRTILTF", "assay": "Protein pin array interaction with alcohol dehydrogenase", "type": "binding", "conditions": "ADH as ligand, unheated and pre-heated", "source_text": "as §1, §2, §3, §4\n(§6) The Y-axis lists the amino acid sequences of the 8-mer peptides that are immobilized sequentially in a 96-well format. […]"}, "[3]": {"biological_target": "T3, porcine citrate synthase (CS) (Sus scrofa, UniProt P00889)", "T3 construct": "purchased", "T3 sequence (P00889 28-464)": "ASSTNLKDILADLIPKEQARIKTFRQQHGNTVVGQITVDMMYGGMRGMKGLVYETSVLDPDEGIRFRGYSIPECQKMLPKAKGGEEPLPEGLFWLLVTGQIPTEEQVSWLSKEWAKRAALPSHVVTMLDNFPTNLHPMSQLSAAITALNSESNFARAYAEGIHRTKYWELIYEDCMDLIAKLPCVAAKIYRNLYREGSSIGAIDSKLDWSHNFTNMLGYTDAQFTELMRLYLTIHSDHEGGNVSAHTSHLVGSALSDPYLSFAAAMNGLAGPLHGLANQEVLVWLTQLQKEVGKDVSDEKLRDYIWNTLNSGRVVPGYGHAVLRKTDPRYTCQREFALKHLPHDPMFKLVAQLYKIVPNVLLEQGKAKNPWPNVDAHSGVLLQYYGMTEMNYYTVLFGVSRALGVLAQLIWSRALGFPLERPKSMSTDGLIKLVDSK", "assay": "Protein pin array interaction with citrate synthase", "type": "binding", "conditions": "CS as target protein, unheated and pre-heated", "source_text": "as §1, §2, §3, §4, §6"}, "γD crystallin [4]": {"biological_target": "T1, γD crystallin", "assay": "Protein pin array interaction with γD crystallin", "type": "binding", "parameters": "purchased", "conditions": "unheated γD crystallin; similar peptide sequences with γD crystallin pre-heated at 45° C. for fifteen minutes", "source_text": "as §1, §2, §3, §4, §5"}}}
{"substance": "STSLSPFYLRPPSFLRAP", "values": [{"measurement": "effect on the fibrillization of γD crystallin", "setting": "γD crystallin [1]", "value": "strongest effect"}, {"measurement": "effect on the thermal aggregation of βL crystallin (chaperone activity)", "setting": "βL crystallin", "value": "weakest effect"}]}
{"substance": "αB crystallin: wild type recombinant human αB crystallin, a small heat shock protein and molecular chaperone", "values": [{"measurement": "Δfluorescence (Aβ)", "setting": "Aβ", "value": "318,471,040"}, {"measurement": "effect on the fibrillization of γD crystallin", "setting": "γD crystallin [1]", "value": "weakest effect"}, {"measurement": "Δfluorescence (γD crystallin)", "setting": "γD crystallin [1]; ThioflavinT, 50° C. for 72 hours, no chaperone 888,803,840", "value": "1,079,141,056"}]}
{"substance": "ERTIPITRE", "values": [{"measurement": "effect on the thermal aggregation of βL crystallin (chaperone activity)", "setting": "βL crystallin", "value": "slightly lower than the HG peptide"}]}
{"substance": "LTITSSLS [Peptide 66]", "values": [{"measurement": "protein pin assay result with target protein beta amyloid", "setting": "beta amyloid", "value": "positive"}, {"measurement": "absorbance at λ=450 nm, interaction with βH crystallin", "setting": "bovine βH crystallin", "value": "Maximum absorbances"}, {"measurement": "absorbance at λ=450 nm, interaction with ADH", "setting": "[2]", "value": "Maximum absorbances"}, {"measurement": "absorbance at λ=450 nm, interaction with CS", "setting": "[3]", "value": "absorbance maxima"}, {"measurement": "absorbance at λ=450 nm, interaction with γD crystallin", "setting": "γD crystallin [4]", "value": "maximum absorbances"}]}
